Test results as given in patent US20220213203A1 (MacroGenics, published 2022).

Legend:
[1] = molecular target: CD123 as arrayed by human cells (human, UniProt P26951 19-378); assay: cell-based or functional assay
Human CD3ε/δ (human) = Human CD3ε/δ (human) (UniProt P07766); assay: kinetic binding analysis; method not given
[2] = molecular target: Cynomolgus CD3ε/δ (cynomolgus monkey) (UniProt Q95LI5); assay: kinetic binding analysis; method not given
Sequence of Cynomolgus CD3ε/δ (cynomolgus monkey) (Q95LI5 22-117, stated change not applied, chain 1 of 2): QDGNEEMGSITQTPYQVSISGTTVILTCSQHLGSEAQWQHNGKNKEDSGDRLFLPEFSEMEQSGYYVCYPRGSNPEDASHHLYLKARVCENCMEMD
Sequence of Cynomolgus CD3ε/δ (cynomolgus monkey) (Q95LI8 22-105, stated change not applied, chain 2 of 2, further chain): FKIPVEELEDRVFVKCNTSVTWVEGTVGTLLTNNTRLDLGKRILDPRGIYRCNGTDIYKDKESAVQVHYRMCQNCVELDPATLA

Sequence of Human CD3ε/δ (human) (P07766 23-126, stated change not applied, chain 1 of 2): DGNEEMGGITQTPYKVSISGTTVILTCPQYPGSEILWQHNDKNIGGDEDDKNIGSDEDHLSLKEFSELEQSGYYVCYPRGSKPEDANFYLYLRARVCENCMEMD
Sequence of Human CD3ε/δ (human) (P04234 22-105, stated change not applied, chain 2 of 2, further chain): as the sequence (Q95LI8 22-105, stated change not applied, chain 2 of 2, further chain) above, with V5I, K15N, V20I, T32S, N33D, N34I, A64T, N74S, L83V counted along it
Sequence of CD123 as arrayed by human cells (P26951 19-378): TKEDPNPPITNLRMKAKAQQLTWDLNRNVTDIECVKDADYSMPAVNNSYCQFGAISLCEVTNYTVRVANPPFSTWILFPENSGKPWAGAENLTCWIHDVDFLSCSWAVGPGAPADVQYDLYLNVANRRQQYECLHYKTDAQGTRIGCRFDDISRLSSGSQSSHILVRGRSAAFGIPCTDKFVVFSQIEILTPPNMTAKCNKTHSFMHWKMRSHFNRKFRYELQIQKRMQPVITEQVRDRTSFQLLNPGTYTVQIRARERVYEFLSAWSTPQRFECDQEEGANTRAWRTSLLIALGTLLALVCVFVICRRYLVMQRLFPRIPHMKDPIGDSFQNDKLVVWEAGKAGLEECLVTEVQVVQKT

B1: DART-A (bispecific antibody)
chain 1: QAVVTQEPSLTVSPGGTVTLTCRSSTGAVTTSNYANWVQQKPGQAPRGLIGGTNKRAPWTPARFSGSLLGGKAALTITGAQAEDEADYYCALWYSNLWVFGGGTKLTVLGGGGSGGGGEVQLVQSGAELKKPGASVKVSCKASGYTFTDYYMKWVRQAPGQGLEWIGDIIPSNGATFYNQKFKGRVTITVDKSTSTAYMELSSLRSEDTAVYYCARSHLLRASWFAYWGQGTLVTVSSGGCGGGEVAALEKEVAALEKEVAALEKEVAALEK
chain 2: DFVMTQSPDSLAVSLGERVTMSCKSSQSLLNSGNQKNYLTWYQQKPGQPPKLLIYWASTRESGVPDRFSGSGSGTDFTLTISSLQAEDVAVYYCQNDYSYPYTFGQGTKLEIKGGGSGGGGEVQLVESGGGLVQPGGSLRLSCAASGFTFSTYAMNWVRQAPGKGLEWVGRIRSKYNNYATYYADSVKDRFTISRDDSKNSLYLQMNSLKTEDTAVYYCVRHGNFGNSYVSWFAYWGQGTLVTVSSGGCGGGKVAALKEKVAALKEKVAALKEKVAALKE
For B1, the “EC50 of redirected killing, Kasumi-3 target cells, E:T = 10:1” value [1] was 0.01 ng/mL, the “EC50 of redirected killing, Molm13 target cells, E:T = 10:1” value [1] was 0.18 ng/mL and the “EC50 of redirected killing, RS4-11 target cells, E:T = 10:1” value [1] was 0.5 ng/mL. The “EC50 of redirected killing, TF-1 target cells, E:T = 10:1” value [1] was 0.46 ng/mL, the “EC50 of redirected killing, THP-1 target cells, E:T = 10:1” value [1] was 0.24 ng/mL and the Kd (Human CD3ε/δ (human)) was 9 nM. For the same binder, the koff (Human CD3ε/δ (human)) was 0.005 s⁻¹, the kon (Human CD3ε/δ (human)) was 570000 M⁻¹ s⁻¹ and the Kd [2] was 9.2 nM. The koff [2] was 0.005 s⁻¹ and the kon [2] was 550000 M⁻¹ s⁻¹.
